Read-outs that look alike come from different tables or passages of the source.
Columns and labels:
[1] = format: in vivo; settings: rabbit, 3 weekly doses
Protocol: Maytansinoid conjugates with different linker-maytansinoid formats were evaluated for induction of corneal ocular toxicity in a preclinical rabbit model. Hallmarks of corneal epithelial damage such as migration of pigmented basal epithelial cells distal from the limbus, corneal pannus, and epithelial erosion were assessed following 3 weekly doses.

[2] = SAR3419 Phase I clinical trials, pharmacokinetics and toxicity; format: in vivo, human
Source text: SAR3419 is a DM4-containing antibody drug conjugate that comprises the humanized antibody Hu-B4 (humanized mouse IgG1 MAb targeting CD19) and the SPDB linker. Phase I clinical trials were initiated in patients having relapsed or refractory CD19+B cell Non-Hodgkins Lymphoma.

[3] = IMGN242 pharmacokinetics and toxicity in human clinical trials; format: in vivo
[4] = IMGN242 preclinical pharmacokinetic studies, mice; format: in vivo
Protocol: (§1) IMGN242 is an antibody drug conjugate for the treatment of CanAg-expressing tumors. The compound is made by conjugating the potent cytotoxic maytansinoid, DM4, to the monoclonal antibody, huC242. Forty-five patients have been treated with IMGN242 at 8 different dose levels (18 to 297 mg/m2) in two clinical trials. […] The determined half-life in patients was similar to that predicted for IMGN242 from preclinical pharmacokinetic studies (t1/2 about 5 days in mice and 4 days in cynomolgus monkeys).

[5] = IMGN242 preclinical pharmacokinetic studies, cynomolgus monkeys; format: in vivo
Protocol: as §1

[6] = patients, 160 mg/m^2 and 208 mg/m^2
[7] = patients with low circulating CanAg (<1000 U/mL)

Question: Which corneal ocular toxicity ([1]; dose 8 mg/kg) does the source give for SMCC-DM1 here?
Answer: −

Question: What about the corneal ocular toxicity ([1]; dose 10 mg/kg) of the same molecule?
Answer: −

Question: What about the corneal ocular toxicity ([1]; dose 12 mg/kg) of the same molecule?
Answer: −

Question: And the corneal ocular toxicity ([1]; dose 16 mg/kg)?
Answer: −

Question: For SAR3419, which elimination [2, 6] is on record?
Answer: eliminated rapidly

Question: What about the exposure versus dose [2, 6] of the same molecule?
Answer: increased with dose

Question: What about the ocular toxicity ([2]; some patients, 160 mg/m^2 or 208 mg/m^2) of the same molecule?
Answer: displayed ocular toxicity

B1: IMGN242 (conjugate, chains of the INN, looked up)
VH: QVQLVQSGAEVKKPGETVKISCKASDYTFTYYGMNWVKQAPGQGLKWMGWIDTTTGEPTYAQKFQGRIAFSLETSASTAYLQIKSLKSEDTATYFCARRGPYNWYFDVWGQGTTVTVSS
VL: DIVMTQSPLSVPVTPGEPVSISCRSSKSLLHSNGNTYLYWFLQRPGQSPQLLIYRMSNLVSGVPDRFSGSGSGTAFTLRISRVEAEDVGVYYCLQHLEYPFTFGPGTKLELK
modifications: maytansinoid DM1 payload (mertansine)
Question: Which Cmax versus dose ([3]; patients) does the source give for B1 here?
Answer: increased proportionally with increasing dose

Question: What about the “effect of circulating CanAg levels on Cmax” value ([3]; patients) of the same molecule?
Answer: not significantly affected

Question: And the increase in clearance ([3]; patients with high CanAg (>1000 U/mL) compared to low (<1000 U/mL))?
Answer: 3 to 5 fold

Question: And the “duration of initial rapid distribution phase” value [3, 7]?
Answer: about 48 hours

Question: And the “pharmacokinetic profile in plasma” value [3, 7]?
Answer: two-phase pharmacokinetic profile

Question: And the elimination phase half-life ([3]; patients with low circulating CanAg, preliminary analysis)?
Answer: about 5 days

Question: What about the “incidence of possible study drug-related ocular toxicities” value ([3]; patients with low plasma CanAg (<1000 U/ml), dose 168 mg/m2) of the same molecule?
Answer: notable incidence

Question: And the “dose limiting toxicities (DLTs)” value ([3]; patients, 18 to 297 mg/m2)?
Answer: decreased visual acuity, corneal deposits and keratitis

Question: What about the t1/2 [4] of the same molecule?
Answer: about 5 days

Question: What about the t1/2 [5] of the same molecule?
Answer: ~4 days

— patent publication US20120282282A1, “Methods for Decreasing Ocular Toxicity of Antibody Drug Conjugates” (priority 2011, published 2012)
